From patent US20220125891A1 (OSAKA UNIVERSITY, published 2022)
Positions of bridges follow the written chain, without caps; N, C: chain ends. Non-standard residues stand in square brackets, D forms with d. No end group written: not given here. NMeA = CN[C@@H](C)C(=O)O; dNMeA = CN[C@H](C)C(=O)O

T1: full-length human Regnase-1 with a FLAG tag on the N-terminal side and a biotin ligase BirA recognition … (human, UniProt Q5D1E8 1-599, biotinylated where required ; Biotinylated at the BirA recognition sequence where required. That sequence is not in the letters.)
T1 construct: Expressed in Expi293 cells, purified on FLAG M2 agarose and by gel filtration; also called full-length Regnase-1; human full-length Regnase-1
T1 sequence: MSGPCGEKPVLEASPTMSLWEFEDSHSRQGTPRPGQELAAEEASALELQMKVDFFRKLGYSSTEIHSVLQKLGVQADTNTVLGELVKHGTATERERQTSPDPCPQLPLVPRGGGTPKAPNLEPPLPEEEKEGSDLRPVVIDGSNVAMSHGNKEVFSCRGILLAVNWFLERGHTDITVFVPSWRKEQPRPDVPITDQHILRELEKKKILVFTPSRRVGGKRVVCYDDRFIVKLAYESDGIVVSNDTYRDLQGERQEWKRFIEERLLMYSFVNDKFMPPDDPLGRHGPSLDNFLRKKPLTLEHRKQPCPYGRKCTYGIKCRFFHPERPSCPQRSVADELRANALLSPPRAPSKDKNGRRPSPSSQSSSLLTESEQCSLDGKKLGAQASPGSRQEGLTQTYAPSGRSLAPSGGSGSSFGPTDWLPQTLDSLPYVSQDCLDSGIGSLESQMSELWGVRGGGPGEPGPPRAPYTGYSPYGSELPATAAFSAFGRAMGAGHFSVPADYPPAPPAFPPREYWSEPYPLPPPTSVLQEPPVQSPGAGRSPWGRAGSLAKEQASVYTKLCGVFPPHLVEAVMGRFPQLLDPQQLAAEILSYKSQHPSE

T2: Reg1_301-599 (human Regnase-1 amino acids 301 to 599, FLAG tag on the N-terminal side, BirA recognition … (human))
T2 sequence (Q5D1E8 301-599, looked up): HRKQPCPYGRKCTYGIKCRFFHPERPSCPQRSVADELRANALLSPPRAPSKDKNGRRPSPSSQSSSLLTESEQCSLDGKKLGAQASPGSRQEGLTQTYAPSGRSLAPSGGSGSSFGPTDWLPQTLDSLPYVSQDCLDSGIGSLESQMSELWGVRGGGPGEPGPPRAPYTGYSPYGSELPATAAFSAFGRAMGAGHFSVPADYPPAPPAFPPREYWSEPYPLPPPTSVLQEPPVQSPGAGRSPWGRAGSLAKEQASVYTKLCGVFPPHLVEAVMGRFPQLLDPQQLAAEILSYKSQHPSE


Legend:
[1] = target: T1, full-length human Regnase-1 with a FLAG …; assay: AlphaScreen, blocks TBK1 binding to FL_Reg1
[2] = target: T2, Reg1_301-599 (human Regnase-1 amino …); assay: cell-based or functional assay
[3] = target: T1, full-length human Regnase-1 with a FLAG …; assay: cell-based or functional assay
[4] = target: T3, ΔCTD_Reg1 (human Regnase-1 amino acids 1 to 546, FLAG tag on the N-terminal side, BirA recognition sequence … (human)); assay: cell-based or functional assay
[5] = target: T1, full-length human Regnase-1 with a FLAG …; assay: affinity selection-MS (SEC, LC/MS), 1 µM each
[6] = target: T1, full-length human Regnase-1 with a FLAG …; assay: AlphaScreen, blocks IKKβ binding to FL_Reg1
[7] = target: T2, Reg1_301-599 (human Regnase-1 amino …); assay: cell-based or functional assay; remark: listed apart in the source
[8] = target: T1, full-length human Regnase-1 with a FLAG …; assay: cell-based or functional assay; remark: listed apart in the source
[9] = target: T3, ΔCTD_Reg1 (human Regnase-1 amino acids …); assay: cell-based or functional assay; remark: listed apart in the source

Binder	IC50 [1]	IC50, phosphorylation by IKKβ [2]	IC50, phosphorylation by IKKβ [3]	IC50, phosphorylation by IKKβ [4]	AS-MS ratio(%) [5]	IC50 [6]	IC50, phosphorylation by TBK1 [7]	IC50, phosphorylation by TBK1 [8]	IC50, phosphorylation by TBK1 [9]
[NMeA]WIWDFWNED (lactam N-10) [PP24]	7.7 µM	7.2 µM	5.3 µM	4 µM	51.1%	8.8 µM	34.8 µM	35.7 µM	27.3 µM
[dNMeA]EDTPEDDHD (lactam N-10) [PP25]	13.1 µM	27.6 µM	27 µM	47.7 µM	6.9%	> 62.1 µM	16.3 µM	18.9 µM	16.1 µM
[NMeA]NFNSAYYRAIWD (lactam N-13) [PP7]	17.9 µM	3 µM	0.8 µM	4.5 µM	15.8%	15.1 µM	4.6 µM	2.2 µM	4.7 µM
[dNMeA]SKYWNSWYNIWD (lactam N-13) [PP8]	6.5 µM	5.7 µM	1.4 µM	7.8 µM	6.2%	7.4 µM	6 µM	2.9 µM	5.5 µM
[dNMeA]TYGHSSWYKIWD (lactam N-13) [PP9]	8.3 µM	6.2 µM	2.7 µM	6.4 µM	14.8%	10.6 µM	7.9 µM	4.2 µM	6.6 µM
[NMeA]NYQSWYYRSIWD (lactam N-13) [PP10]	9.8 µM	1.8 µM	0.5 µM	2.6 µM	3.7%	11.4 µM	0.4 µM	0.2 µM	0.2 µM
[NMeA]KFAQFRWIYPD (lactam N-12) [PP11]	60.9 µM	> 62.1 µM	22.3 µM	> 62.1 µM	5.1%	> 62.1 µM	> 62.1 µM	29.1 µM	55.6 µM
[NMeA]RYAVYQWIYPD (lactam N-12) [PP12]	> 62.1 µM	20.7 µM	6.8 µM	27 µM	21%	> 62.1 µM	19.6 µM	12.7 µM	22.5 µM
[NMeA]RFRQWKWVYPD (lactam N-12) [PP13]	13.8 µM	23.2 µM	3.6 µM	43.2 µM	0.1%	16.9 µM	18 µM	8.4 µM	17.7 µM
[NMeA]RFGVWSWIYPD (lactam N-12) [PP14]	7.1 µM	6.5 µM	1.6 µM	9 µM	4.2%	20.1 µM	6.8 µM	3.1 µM	5.2 µM
[NMeA]NSWYINIWGHD (lactam N-12) [PP15]	13.7 µM	22 µM	5.6 µM	31 µM	66.7%	33.7 µM	17.4 µM	8.5 µM	9.5 µM
[NMeA]NFSNSWYNIWD (lactam N-12) [PP16]	20.2 µM	42.2 µM	20.6 µM	30.8 µM	17.9%	> 62.1 µM	> 62.1 µM	52.4 µM	38.1 µM
[NMeA]DIWFDYWDWD (lactam N-11) [PP17]	< 0.06 µM	0.7 µM	0.5 µM	0.3 µM	67.8%	< 0.06 µM	< 0.06 µM	< 0.06 µM	0.3 µM
[NMeA]DIWFDYWDYD (lactam N-11) [PP18]	< 0.06 µM	0.5 µM	0.4 µM	0.2 µM	71.6%	< 0.06 µM	0.9 µM	0.6 µM	1.8 µM
[NMeA]VFYKIWYNWD (lactam N-11) [PP19]	2.4 µM	10.1 µM	5.4 µM	12.6 µM	2.1%	5.8 µM	5.8 µM	3.7 µM	4.6 µM
[NMeA]KFWIHHSFED (lactam N-11) [PP20]	47.6 µM	> 62.1 µM	24.7 µM	> 62.1 µM	85%	> 62.1 µM	> 62.1 µM	38.5 µM	> 62.1 µM
[NMeA]NSWYKIWGLD (lactam N-11) [PP21]	5.6 µM	37.2 µM	19.6 µM	39.3 µM	15.1%	20.7 µM	17 µM	13.5 µM	11.7 µM
